This note sets out measurements from PMC9880813 (Genomics, Proteomics & Bioinformatics, 2021).

In test [1] the target is YC157-ΔbFos. Description: split reporter (BiFC, NanoBiT).
Test [2] addresses YC157-bFos (UniProt P01100 118-210). As to the kind of experiment: split reporter (BiFC, NanoBiT). The note with it: partners not purified.

Sequence of YC157-bFos (P01100 118-210): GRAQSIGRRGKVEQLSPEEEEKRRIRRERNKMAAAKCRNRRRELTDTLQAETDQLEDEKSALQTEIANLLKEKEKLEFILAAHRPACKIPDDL

B1: YN157-bJun (domain or fragment, UniProt P05412 257-318, looked up)
chain: RKRMRNRIAASKCRKRKLERIARLEEKVKTLKAQNSELASTANMLREQVAQLKQKVMNHVNS
For the molecule B1, in test [1], the fluorescence-positive cell ratio worked out at 0.5%. In addition, in test [2], the “percentage of fluorescent cells, fold over the negative group (YN157-bJun + YC157-ΔbFos)” value is 7 fold; the “signal-to-noise ratio of all cells (against YN157-bJun + YC157-ΔbFos)” value came out at 33 ratio; the “signal-to-noise ratio of fluorescent cells (against YN157-bJun + YC157-ΔbFos)” value was found to be 4 ratio.
